No end group written: not given here.
Biological target: T1, HsGATAD2A coiled-coil domain, uncleaved fusion peptide (human, UniProt Q86YP4 137-178)
T1 construct: GATAD2A (p66α), human, coiled-coil domain; the purification of this construct is not described here; also called GATAD2A (p66α)
Assay: ITC; fusion peptides left uncleaved; 50 mM Hepes pH 7.4, 150 mM NaCl, 298 K; MicroCal Auto-iTC200, 20–24 injections; HsMBD2 (1.8 mM), EmGATAD2A/B (2.74 mM), DmGATAD2A/B (2.5 mM) injected into HsGATAD2A (100 μM), EmMBD2/3 (270 μM), DmMBD2/3 (250 μM); one-site binding model
Settings: both partners purified

T1 sequence (Q86YP4 137-178): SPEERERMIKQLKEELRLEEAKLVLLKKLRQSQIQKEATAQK

- Kd: 48 nM
- dH: -9.93 kcal/mol
- stoichiometry N: 1.3
B1: HsMBD2 coiled-coil domain, uncleaved fusion peptide (domain or fragment, human)
chain: KAFIVTDEDIRKQEERVQQVRKKLEEALMADILS
modifications: also: uncleaved fusion tag
notes: MBD2, human, coiled-coil domain; the purification of this construct is not described here

From article PMC5240623, “Methylation specific targeting of a chromatin remodeling complex from sponges to humans” (Scientific Reports, 2017)
